In patent US6028055A, “Receptor selective BNP” (Genetech, Inc., priority 1997, dated 2000):

T1: NPR-A (Homo sapiens, UniProt P16066)
T1 construct: expressed in transfected cells
T1 sequence (P16066 33-1061): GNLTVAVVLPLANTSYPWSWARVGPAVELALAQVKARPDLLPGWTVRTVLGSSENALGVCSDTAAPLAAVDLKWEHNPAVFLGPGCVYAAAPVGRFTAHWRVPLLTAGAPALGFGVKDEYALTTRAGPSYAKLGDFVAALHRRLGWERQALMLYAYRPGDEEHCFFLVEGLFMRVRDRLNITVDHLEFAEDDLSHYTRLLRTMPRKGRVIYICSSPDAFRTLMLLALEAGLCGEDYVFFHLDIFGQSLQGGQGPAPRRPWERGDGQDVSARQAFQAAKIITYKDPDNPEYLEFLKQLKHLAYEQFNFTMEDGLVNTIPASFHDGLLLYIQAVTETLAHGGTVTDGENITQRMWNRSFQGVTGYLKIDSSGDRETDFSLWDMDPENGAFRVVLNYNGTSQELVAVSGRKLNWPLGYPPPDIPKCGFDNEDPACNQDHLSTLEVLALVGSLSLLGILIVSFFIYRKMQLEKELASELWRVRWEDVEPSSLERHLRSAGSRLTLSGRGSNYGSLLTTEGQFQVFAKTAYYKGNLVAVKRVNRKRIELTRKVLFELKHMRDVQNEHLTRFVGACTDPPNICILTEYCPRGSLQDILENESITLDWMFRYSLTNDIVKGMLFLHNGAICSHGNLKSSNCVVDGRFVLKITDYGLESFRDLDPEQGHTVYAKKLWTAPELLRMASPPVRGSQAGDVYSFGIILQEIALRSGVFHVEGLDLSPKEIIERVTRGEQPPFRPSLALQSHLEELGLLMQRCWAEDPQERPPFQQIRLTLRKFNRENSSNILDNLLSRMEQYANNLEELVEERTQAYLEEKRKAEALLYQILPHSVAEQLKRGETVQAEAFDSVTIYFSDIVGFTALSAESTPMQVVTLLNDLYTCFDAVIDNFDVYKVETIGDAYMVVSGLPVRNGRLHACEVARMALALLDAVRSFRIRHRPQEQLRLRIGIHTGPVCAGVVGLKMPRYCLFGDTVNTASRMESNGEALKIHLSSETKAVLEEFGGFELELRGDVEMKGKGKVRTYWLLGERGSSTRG

T2: NPR-C (Homo sapiens, UniProt P17342)
T2 construct: expressed in transfected cells
T2 sequence (P17342 27-541): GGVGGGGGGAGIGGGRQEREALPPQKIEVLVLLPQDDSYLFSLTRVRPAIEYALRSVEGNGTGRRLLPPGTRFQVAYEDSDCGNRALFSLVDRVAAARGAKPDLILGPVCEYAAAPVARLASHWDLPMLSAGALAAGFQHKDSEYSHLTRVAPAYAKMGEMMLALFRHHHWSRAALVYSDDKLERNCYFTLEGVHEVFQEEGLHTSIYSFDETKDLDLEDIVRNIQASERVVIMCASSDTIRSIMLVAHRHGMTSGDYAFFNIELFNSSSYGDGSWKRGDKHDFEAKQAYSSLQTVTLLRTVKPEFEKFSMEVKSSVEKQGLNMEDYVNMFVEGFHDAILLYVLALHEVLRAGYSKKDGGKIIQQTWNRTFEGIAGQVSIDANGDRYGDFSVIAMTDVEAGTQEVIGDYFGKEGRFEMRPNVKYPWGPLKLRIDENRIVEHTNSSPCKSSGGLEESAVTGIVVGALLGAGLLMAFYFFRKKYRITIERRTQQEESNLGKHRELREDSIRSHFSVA

T3: NPR-C expressed in stable 293 cell lines (membranes) (human) (UniProt P17342)
T3 sequence: T2 sequence (P17342 27-541)

T4: NPR-C expressed in stable 293 cell lines (membranes) (human, UniProt P17342)
T4 sequence: T2 sequence (P17342 27-541)


Columns and labels:
NPR-A = target: T1, NPR-A; assay: Measurement of binding affinities for NPR-A, membranes from stable 293 cell lines, 125I rat ANP displacement; conditions: pure synthetic peptide vs 30 pM 125I rat ANP, 2 hours room temperature; duplicate points, three separate assays
Procedure: (§1) Membrane Preparation Membranes from stable 293 cell lines expressing NPR-A (Lowe and Fendly (1992) J. Biol. Chem.) or NPR-C (Cunningham et al. (1994) supra) were prepared by removing the cells from tissue culture plates with 0.5MM EDTA in PBS, centrifuging at 225×g, 4° C., and resuspending in 50 mM Hepes Ph7.4, 1 mM EDTA, 1 mM DTT, 250 mM Sucrose, 0.7 μg/ml Pepstatin A, 0.5 μg/ml Leupeptin, 1 mM PMSF, 1 μM Phosphoramidon. The resuspended cells were homogenized for 30 seconds with a Brinkman polytron on setting 5. The homogenate was centrifuged in 30 ml corex tubes in Sorval HB-4 rotor at 400×(1500 rpm) for 10 minutes at 4° C. The supernatant was centrifuged again in screw cap polycarbonate tubes (Beckman 355618) at 100,000×g (31,500 rpm) for 30 minutes, 4° C. in a Beckman TI60 rotor. The pellet was resuspended in 50 mM Hepes, 0.1 mM EDTA, 5.0 mM MgCl2, 100 mM NaCl, 0.7μg/ml Pepstatin A, 0.5 μg/ml Leupeptin, 1 mM PMSF, 1 μM Phosphoramidon and homogenized again with 15 strokes in a Dounce homogenizer (Wheaton 7 ml, #357542). The membranes were passed through a 22 gauge needle several times before aliquoting into eppendorf tubes for storage at -80° C.
(§2) The binding was allowed to go for 2 hours at room temperature in 96 well U-bottomed microtiter polypropylene plates (Sigma M-4029) with gentle agitation. The bound hormone was separated from the free using a Packard Filtermate 196 cell harvester and 1% polyethyleneimine-saturated Packard unifilter-96 GF/B plates by vacuum filtration. The plates were dried under vacuum chamber for 10 minutes prior to adding 40 μl Microscint-20 scintillant and counting in a Packard Topcount scintillation counter. Each affinity represents points measured in duplicate within three separate assays.

NPR-C = target: T2, NPR-C; assay: Measurement of binding affinities for NPR-C, membranes from stable 293 cell lines, 125I rat ANP displacement; design: unit not given here; conditions: pure synthetic peptide vs 30 pM 125I rat ANP, 2 hours room temperature; duplicate points, three separate assays
Procedure: as §1, §2

[1] = target: T3, NPR-C expressed in stable 293 cell lines (membranes) (human); assay: competition with 30 pM 125I-rat ANP on membranes of 293 cells expressing NPR-C; unit not given
[2] = target: human natriuretic peptide receptor-A expressed in 293 cells (human) (UniProt P16066); assay: competition with 30 pM 125I-rat ANP on membranes of 293 cells expressing NPR-A; unit not given
[3] = target: human natriuretic peptide receptor-A expressed in 293 cells (human, UniProt P16066); assay: as above
Procedure: as §1, with “µg/ml” for “μg/ml”, “µM” for “μM”, “MgCl_2,” for “MgCl2,”, “0.7µg/ml” for “0.7μg/ml”, “−80°” for “-80°”
(§3) The binding was allowed to go for 2 hours at room temperature in 96 well U-bottomed microtiter polypropylene plates (Sigma M-4029) with gentle agitation. The bound hormone was separated from the free using a Packard Filtermate 196 cell harvester and 1% polyethyleneimine-saturated Packard unifilter-96 GF/B plates by vacuum filtration. The plates were dried under vacuum chamber for 10 minutes prior to adding 40 µl Microscint-20 scintillant and counting in a Packard Topcount scintillation counter. Each affinity represents points measured in duplicate within three separate assays.

[4] = target: T4, NPR-C expressed in stable 293 cell …; assay: competition with 30 pM 125I-rat ANP on membranes of 293 cells expressing NPR-C; unit not given
Procedure: as §1, with “µg/ml” for “μg/ml”, “µM” for “μM”, “MgCl_2,” for “MgCl2,”, “0.7µg/ml” for “0.7μg/ml”, “−80°” for “-80°”
as §3

Chain of hBNP Ser19Arg (SEQ ID NO: 4) (peptide) (peptide): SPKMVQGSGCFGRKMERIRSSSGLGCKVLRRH

Molecule	affinity (NPR-C) [1]	affinity (NPR-A) [2]	affinity (NPR-A) [3]	affinity (NPR-C) [4]	also measured
hBNP Ser19Arg Gly23Phe, Leu24Trp, Gly25Arg (SPKMVQGSGCFGRKMERIRSSSFWRCKVLRRH)	–	–	–	–	NPR-A binding affinity (Assay #1) (NPR-A): 287 ± 27; NPR-C binding affinity (Assay #1) (NPR-C): 172,400 ± 120,096
hBNP Gly23Phe, Leu24Trp, Gly25Arg (SPKMVQGSGCFGRKMERISSSSFWRCKVLRRH)	–	–	–	–	NPR-A binding affinity (Assay #1) (NPR-A): 378 ± 136; NPR-C binding affinity (Assay #1) (NPR-C): 9363 ± 2067
hBNP (SEQ ID NO: 1) (peptide)	1790	645	–	–	–
hBNP Ser19Arg (SEQ ID NO: 4) (peptide)	95500	155	–	–	–
hBNP Ser19Arg	–	–	–	–	NPR-A binding affinity (Assay #1) (NPR-A): 155 ± 55.3; NPR-C binding affinity (Assay #1) (NPR-C): 95,498 ± 14,603
hBNP Gly23Phe, Leu24Trp, Gly25Arg (SEQ ID NO: 2) (peptide)	9360	378	–	–	–
SPKMVQGSGCFGRKMERIRSSSFWRCKVLRRH [hBNP Ser19Arg, Gly23Phe, Leu24Trp, Gly25Arg (SEQ ID NO: 7)]	172000	287	–	–	–
SLRRSSCFGGRIDRIGAQSGLGCNSFRY [hANP (SEQ ID NO: 51)]	–	–	43.5	198	–
SLRRSSCFGGRIDRIGAQSFWRCNSFRY [hANP Net12Ile, Gly20Phe, Leu21Trp, Gly22Arg (SEQ ID NO:50)]	–	–	507	295	–
SLRRSSCFGGRIDRIRAQSGLGCNSFRY [hANP Gly16Arg (SEQ ID NO: 52)]	–	–	17.2	10600	–
SPKMVQGSGCFGGRMDRIRSSSGLGCKVLRRH [hBNP Arg13Gly, Lys14Arg, Ser19Arg (SEQ ID NO:49)]	–	–	518	28400	–
